Experimental data published in US5580955A, “Fragments of neurofibromin (NF1) and method to reverse activated ras induced malignant transformation in mammalian cells” (Ludwig Institute for Cancer Research, priority 1995, dated 1996).
Entries after “also recorded” stand apart in the source; their conditions may differ.

Legend:
[1] = test system: V-HaRas transformed NIH/3T3 cells; assay: soft agar colony (SAC) formation by V-HaRas transformed NIH/3T3 cells transfected with NF1 fragment plasmids; type: cell-based; conditions: for SAC (%), relative soft agar colony forming ability: non-transfected clone #0 = 100; for Colonies/10^3 cells (number of colonies found in soft agar): 1000 cells per plate, 37° C., three weeks; for ability to form soft agar colonies (in words): compared with non-transfected parental V-HaRas transformed cells
Protocol: The transfectants were then cloned in the presence of a neomycin analogue, i.e., G418 at 400 ug/ml. The transfectants were initially screened for viability in the G418 medium, following Maruta et al., supra., and Nur-E.-Kamal et al., supra.
After the transfectants were screened for viability, the ability of the parental clone and each surviving transfectant to form soft agar colonies (SAC) were then examined by incubating 1000 cells per plate at 37° C. for three weeks under standard culture conditions, as described in Maruta et al., supra.

c-HaRas protein = assay: Ras GTPase stimulating activity: hydrolysis of [gamma-32P] GTP bound to c-HaRas protein, by GST fusion NF1 mutants; type: biochemical, murine; conditions: for Activation (fold), Ras GTPase activation: 20 ug/ml NF1 mutants; for Activation (fold), Ras GTPase activation / EC50, concentration required for 50% hydrolysis of GTP bound Ras: 25° C., 20 minutes
Source text: N- and C- terminal deletion mutants were constructed by subcloning the corresponding PCR DNA fragments into the bacterial expression vector pGEX-2TH, as described in Maruta et al., supra. FIG. 4 sets forth the DNA fragments inserted into the expression vector. The number following NF of each mutant indicates the total amino acid residues included. The DNA fragments inserted include the DNA for human type I NF357, human type II NF1-GRD (amino acid residues 1355 to 1531 in addition to the insert of 21 amino acids) and murine c-HaRas (residues 1-189). The type II-specific insert of 21 amino acids is indicated by the number 21 above a triangle following codon 1371. This 21 amino acid insert is set forth in SEQ ID NO: 2. The solid rectangle indicates the GAP active center of 56 amino acids, whereas the shaded rectangle indicates a supporting domain of 22 amino acids.
The expression vectors were transfected into E.coli and the protein expressed as GST fusion proteins. The fusion proteins were thereafter purified from E.coli as glutathione S-transfeRase fusion proteins and affinity-purified on a glutathione (GSH)-agarose column, as described in Maruta, et al., supra.
The purified proteins were then screened for Ras GTPase stimulating activity. The assay was carried out for each of the NF357 deletion mutants.
The hydrolysis of [gamma-^32 P] GTP bound to c-HaRas protein was determined by incubating with bound protein at 25° C. for 20 minutes in the presence or absence of each NF1 mutant preparation in 100 ul of a buffer containing 50 mMTris-HCl, pH 7.5, 15 mMMgCl2, 2.5 mM EDTA, 3 mM ATP, 1 mM dithiothreitol (DTT) and 0.5 mg/ml bovine serum albumin (BSA), then precipitating the unhydrolyzed [gamma-32P] GTP with charcoal, and finally measuring the radioactivity of the [gamma-32P] inorganic phosphate in the supernatant, as described previously, Maruta et al., supra. Protein concentrations were determined by the Bradford method with BSA as a standard.

[2] = test system: V-HaRas transformed NIH/3T3 cells; assay: morphology of V-HaRas transformed NIH/3T3 cells overexpressing NF1 fragments; type: cell-based; conditions: liquid culture, compared with parental V-HaRas transformed cells
[3] = clones with relatively high (H) mRNA level
[4] = clones with relatively high (H) steady-state mRNA level
[5] = clone #8, relatively low (L) steady-state mRNA level

Question: Which “reversion of activated Ras induced transformation (in words)” value ([1]; expression of the fragment in transformed cells) does the source give for “NF56: NF1 fragment, amino acid residues 1441 to 1496 (RPFNDFVKSNFDAARRFFLDIASDCPTSDAVNHSLSFISDGNVLALHRLLWNNQEK)” here?
Answer: The value was “leads to reversion of activated Ras induced transformation; also recorded: capable of reversing Ras transformation”.

Question: And the “Ras GTPase stimulation (in words)” value (c-HaRas protein)?
Answer: Its value is “no longer able to stimulate Ras GTPase activity; also recorded: cannot stimulate; also recorded: does not stimulate GTPase activity; also recorded: not capable of GTPase activation”.

Question: And the “Activation (fold), Ras GTPase activation” value (c-HaRas protein)?
Answer: The value was 0 fold.

B1: NF 326: NF1 fragment, residues 1206-1531 (protein, UniProt P21359 1206-1531, looked up, fragment)
chain: ERLVELVTMMGDQGELPIAMALANVVPCSQWDELARVLVTLFDSRHLLYQLLWNMFSKEVELADSMQTLFRGNSLASKIMTFCFKVYGATYLQKLLDPLLRIVITSSDWQHVSFEVDPTRLEPSESLEENQRNLLQMTEKFFHAIISSSSEFPPQLRSVCHCLYQATCHSLLNKATVKEKKENKKSVVSQRFPQNSIGAVGSAMFLRFINPAIVSPYEAGILDKKPPPRIERGLKLMSKILQSIANHVLFTKEEHMRPFNDFVKSNFDAARRFFLDIASDCPTSDAVNHSLSFISDGNVLALHRLLWNNQEKIGQYLSSNRDHKAV
Question: Which “Activation (fold), Ras GTPase activation” value (c-HaRas protein) does the source give for B1 here?
Answer: The value was 11 fold.

Question: What about the “EC50, concentration required for 50% hydrolysis of GTP bound Ras” value (“EC50 … for 50% hydrolysis of GTP bound Ras” below) (c-HaRas protein) of the same molecule?
Answer: Its value is 1.5 µg/mL.

B2: NF91: NF1 fragment, amino acid residues 1441 to 1531; GST fusion in Table II, expressed from pMV7 plasmid in cells (protein, UniProt P21359 1441-1531, looked up, fragment)
chain: LMSKILQSIANHVLFTKEEHMRPFNDFVKSNFDAARRFFLDIASDCPTSDAVNHSLSFISDGNVLALHRLLWNNQEKIGQYLSSNRDHKAV
modifications: GST fusion
Question: With B2 as the molecule, how does the “SAC (%), relative soft agar colony forming ability” value [1, 3] read?
Answer: The value was 0%.

Question: And the “Colonies/10^3 cells (number of colonies found in soft agar)” value (shortened to “Colonies/10^3 cells”) [1, 4]?
Answer: Its value is 0 Colonies/10^3 cells.

Question: What about the “ability to form soft agar colonies (in words)” value [1] of the same molecule?
Answer: Its value is “no longer able to form any soft agar colonies”.

Question: And the “Ras GTPase stimulation (in words)” value (c-HaRas protein)?
Answer: The value was “still stimulated Ras GTPase activity; also recorded: still able to stimulate normal Ras GTPase activity”.

Question: And the “efficiency of Ras GTPase stimulation, times less efficient compared to NF342 / NF357” value (c-HaRas protein)?
Answer: The value was “twenty”.

Question: And the “Activation (fold), Ras GTPase activation” value (c-HaRas protein)?
Answer: The value was 10 fold.

Question: What about the “EC50 … for 50% hydrolysis of GTP bound Ras” value (c-HaRas protein) of the same molecule?
Answer: Its value is 10 µg/mL.

Question: And the cell morphology [2]?
Answer: Its cell morphology is “morphologically flat”.

Question: What about the cell morphology ([2]; listed as NF91 (Sense)) of the same molecule?
Answer: The cell morphology was “Flat”.

B3: NF338: NF1 protein fragment, amino acid residues 1194 to 1531, expressed from retroviral vector pMV7 (protein)
chain: DTLAETVLADRFERLVELVTMMGDQGELPIAMALANVVPCSQWDELARVLVTLFDSRHLLYQLLWNMFSKEVELADSMQTLFRGNSLASKIMTFCFKVYGATYLQKLLDPLLRIVITSSDWQHVSFEVDPTRLEPSESLEENQRNLLQMTEKFFHAIISSSSEFPPQLRSVCHCLYQVVSQRFPQNSIGAVGSAMFLRFINPAIVSPYEAGILDKKPPPRIERGLKLMSKILQSIANHVLFTKEEHMRPFNDFVKSNFDAARRFFLDIASDCPTSDAVNHSLSFISDGNVLALHRLLWNNQEKIGQYLSSNRDHKAVGRRPFDKMATLLAYLGPPEHK
Question: With B3 as the molecule, how does the “SAC (%), relative soft agar colony forming ability” value ([1]; clone #8, relatively low (L) mRNA level) read?
Answer: Its value is 5%.

Question: And the “average size of the soft agar colony” value [1, 5]?
Answer: The value was “medium”.

Question: And the “Colonies/10^3 cells” value [1, 5]?
Answer: Its value is 37 Colonies/10^3 cells.

Question: And the “SAC (%), relative soft agar colony forming ability” value [1, 3]?
Answer: Its value is 0.4%.

Question: And the “Colonies/10^3 cells” value [1, 4]?
Answer: The value was 3 Colonies/10^3 cells.

Question: And the “ability to form soft agar colonies (in words)” value [1]?
Answer: The value was “greatly reduced”.

Question: What about the cell morphology [2] of the same molecule?
Answer: Its cell morphology is “differed significantly”.

B4: NF 327: NF1 fragment, residues 1205-1531 (protein, UniProt P21359 1205-1531, looked up, fragment)
chain: FERLVELVTMMGDQGELPIAMALANVVPCSQWDELARVLVTLFDSRHLLYQLLWNMFSKEVELADSMQTLFRGNSLASKIMTFCFKVYGATYLQKLLDPLLRIVITSSDWQHVSFEVDPTRLEPSESLEENQRNLLQMTEKFFHAIISSSSEFPPQLRSVCHCLYQATCHSLLNKATVKEKKENKKSVVSQRFPQNSIGAVGSAMFLRFINPAIVSPYEAGILDKKPPPRIERGLKLMSKILQSIANHVLFTKEEHMRPFNDFVKSNFDAARRFFLDIASDCPTSDAVNHSLSFISDGNVLALHRLLWNNQEKIGQYLSSNRDHKAV
Question: What does the source list for B4?
Answer: Activation (fold), Ras GTPase activation (c-HaRas protein): 14 fold; EC50, concentration required for 50% hydrolysis of GTP bound Ras (c-HaRas protein): 0.40 µg/mL

B5: NF 266: NF1 fragment, residues 1175-1440 (protein, UniProt P21359 1175-1440, looked up, fragment)
chain: TRATFMEVLTKILQQGTEFDTLAETVLADRFERLVELVTMMGDQGELPIAMALANVVPCSQWDELARVLVTLFDSRHLLYQLLWNMFSKEVELADSMQTLFRGNSLASKIMTFCFKVYGATYLQKLLDPLLRIVITSSDWQHVSFEVDPTRLEPSESLEENQRNLLQMTEKFFHAIISSSSEFPPQLRSVCHCLYQATCHSLLNKATVKEKKENKKSVVSQRFPQNSIGAVGSAMFLRFINPAIVSPYEAGILDKKPPPRIERGLK
Question: Which “Activation (fold), Ras GTPase activation” value (c-HaRas protein) does the source give for B5 here?
Answer: Its value is 0 fold.

B6: NF 342: NF1 fragment, residues 1190-1531 (protein, UniProt P21359 1190-1531, looked up, fragment)
chain: GTEFDTLAETVLADRFERLVELVTMMGDQGELPIAMALANVVPCSQWDELARVLVTLFDSRHLLYQLLWNMFSKEVELADSMQTLFRGNSLASKIMTFCFKVYGATYLQKLLDPLLRIVITSSDWQHVSFEVDPTRLEPSESLEENQRNLLQMTEKFFHAIISSSSEFPPQLRSVCHCLYQATCHSLLNKATVKEKKENKKSVVSQRFPQNSIGAVGSAMFLRFINPAIVSPYEAGILDKKPPPRIERGLKLMSKILQSIANHVLFTKEEHMRPFNDFVKSNFDAARRFFLDIASDCPTSDAVNHSLSFISDGNVLALHRLLWNNQEKIGQYLSSNRDHKAV
Question: Which results are given for B6?
Answer: Activation (fold), Ras GTPase activation (c-HaRas protein): 14 fold; EC50, concentration required for 50% hydrolysis of GTP bound Ras (c-HaRas protein): 0.52 µg/mL

B7: NF 80: NF1 fragment, residues 1452-1531 (protein, UniProt P21359 1452-1531, looked up, fragment)
chain: HVLFTKEEHMRPFNDFVKSNFDAARRFFLDIASDCPTSDAVNHSLSFISDGNVLALHRLLWNNQEKIGQYLSSNRDHKAV
Question: Which “Activation (fold), Ras GTPase activation” value (c-HaRas protein) does the source give for B7 here?
Answer: Its value is 0 fold.

B8: NF357: NF1 fragment, amino acid residues 1175-1531 of human type I neurofibromin (protein, UniProt P21359 1175-1531, looked up, fragment)
chain: TRATFMEVLTKILQQGTEFDTLAETVLADRFERLVELVTMMGDQGELPIAMALANVVPCSQWDELARVLVTLFDSRHLLYQLLWNMFSKEVELADSMQTLFRGNSLASKIMTFCFKVYGATYLQKLLDPLLRIVITSSDWQHVSFEVDPTRLEPSESLEENQRNLLQMTEKFFHAIISSSSEFPPQLRSVCHCLYQATCHSLLNKATVKEKKENKKSVVSQRFPQNSIGAVGSAMFLRFINPAIVSPYEAGILDKKPPPRIERGLKLMSKILQSIANHVLFTKEEHMRPFNDFVKSNFDAARRFFLDIASDCPTSDAVNHSLSFISDGNVLALHRLLWNNQEKIGQYLSSNRDHKAV
Question: How did the “GTPase activity, times more active than NF91” value (c-HaRas protein) turn out when B8 was run?
Answer: The value was “twenty”.

Question: What about the “Activation (fold), Ras GTPase activation” value (c-HaRas protein) of the same molecule?
Answer: The value was 14 fold.

Question: And the “EC50 … for 50% hydrolysis of GTP bound Ras” value (c-HaRas protein)?
Answer: Its value is 0.50 µg/mL.

B9: NF 292: NF1 fragment, residues 1205-1496 (protein, UniProt P21359 1205-1496, looked up, fragment)
chain: FERLVELVTMMGDQGELPIAMALANVVPCSQWDELARVLVTLFDSRHLLYQLLWNMFSKEVELADSMQTLFRGNSLASKIMTFCFKVYGATYLQKLLDPLLRIVITSSDWQHVSFEVDPTRLEPSESLEENQRNLLQMTEKFFHAIISSSSEFPPQLRSVCHCLYQATCHSLLNKATVKEKKENKKSVVSQRFPQNSIGAVGSAMFLRFINPAIVSPYEAGILDKKPPPRIERGLKLMSKILQSIANHVLFTKEEHMRPFNDFVKSNFDAARRFFLDIASDCPTSDAVNHSL
Question: With B9 as the molecule, how does the “Ras GTPase stimulation (in words)” value (c-HaRas protein) read?
Answer: The value was “stimulate normal Ras GTPase activity”.

Question: And the “Activation (fold), Ras GTPase activation” value (c-HaRas protein)?
Answer: Its value is 11 fold.

Question: And the “EC50 … for 50% hydrolysis of GTP bound Ras” value (c-HaRas protein)?
Answer: Its value is 7.5 µg/mL.
